Test results: publication PMC2646663 (Biochemistry, 2008)

T1: Formylglycinamide ribonucleotide amidotransferase (small PurL) from Thermotoga maritima (Thermotoga maritima, UniProt Q9X0X3 1-603)
T1 sequence: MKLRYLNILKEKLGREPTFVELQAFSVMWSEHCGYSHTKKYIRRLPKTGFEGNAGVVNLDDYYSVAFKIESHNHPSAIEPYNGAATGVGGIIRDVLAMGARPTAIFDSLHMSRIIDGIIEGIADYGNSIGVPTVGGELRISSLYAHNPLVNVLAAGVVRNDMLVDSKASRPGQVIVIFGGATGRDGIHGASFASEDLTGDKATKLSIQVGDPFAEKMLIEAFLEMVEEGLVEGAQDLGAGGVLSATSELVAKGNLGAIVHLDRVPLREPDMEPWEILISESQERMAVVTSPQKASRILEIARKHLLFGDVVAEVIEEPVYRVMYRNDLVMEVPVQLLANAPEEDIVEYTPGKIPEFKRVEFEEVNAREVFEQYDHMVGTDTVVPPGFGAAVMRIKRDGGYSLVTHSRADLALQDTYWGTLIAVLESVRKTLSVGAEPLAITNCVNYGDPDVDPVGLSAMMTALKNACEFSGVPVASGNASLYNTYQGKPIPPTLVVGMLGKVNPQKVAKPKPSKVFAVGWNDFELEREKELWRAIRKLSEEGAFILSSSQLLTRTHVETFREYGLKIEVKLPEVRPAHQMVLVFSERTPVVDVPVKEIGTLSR

B1: PurQ (glutaminase subunit of FGAR amidotransferase) from Thermotoga maritima (enzyme)
chain: MKPRACVVVYPGSNCDRDAYHALEINGFEPSYVGLDDKLDDYELIILPGGFSYGDYLRPGAVAAREKIAFEIAKAAERGKLIMGICNGFQILIEMGLLKGALLQNSSGKFICKWVDLIVENNDTPFTNAFEKGEKIRIPIAHGFGRYVKIDDVNVVLRYVKDVNGSDERIAGVLNESGNVFGLMPHPERAVEELIGGEDGKKVFQSILNYLKR
modifications: glutamyl thioester intermediate covalently linked to Cys86 (seen in the crystal structure)
B2: PurS from Thermotoga maritima (natural protein)
chain: MPLFKFAIDVQYRSNVRDPRGETIERVLREEKGLPVKKLRLGKSIHLEVEAENKEKAYEIVKKACEELLVNPVVEEYEVREL

Key:
[1] = molecular target: T1, Formylglycinamide ribonucleotide …; test: crystal structure
crystal structure = molecular target: the molecule itself; test: crystal structure

Binder | stoichiometry N [1] | stoichiometry N (crystal structure)
B1 | 1 TmPurQ per TmPurL | –
B2 | 2 TmPurS per TmPurL | 2
